Experimental data as given in the supplement of paper PMC9170038.

Columns and labels:
[1] = system: MS2 coat protein; assay: apparent KD of MS2 coat protein; designed switch direction (-1 OFF switch, 1 ON switch): -1; higher = weaker reporter binding; details: Eterna round: R98
Method: (§1)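 RNA-MaP: designed FMN/MS2 RNA switches (84 nt design region) are transcribed on-chip within common flanks and titrated with SNAP-549-labelled MS2 coat protein (about 1-3000 nM) in 100 mM Tris pH 7.5, 80 mM KCl, 4 mM MgCl2, without or with 200 uM FMN. Median apparent KD per design; activation ratio = KD,OFF / KD,ON.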

[2] = system: MS2 coat protein; assay: apparent KD of MS2 coat protein; designed switch direction (-1 OFF switch, 1 ON switch): 1; higher = weaker reporter binding; details: Eterna round: R98
Method: as §1

[3] = system: MS2 coat protein; assay: apparent KD of MS2 coat protein; higher = weaker reporter binding; details: Eterna round: R101
Method: as §1

Sequence: GCGGGAUGAGUCGUUGGUUCACAUGAGGAUCACCCAUGUAGGGAGGAUAUGCAUCUGGUCCCGGAGCAGAAGGCCCUGCAUCGA [Raedxea]
- apparent KD of MS2 coat protein ([1]; input ligand: FMN 200 uM): 1540 nM
- apparent KD of MS2 coat protein ([1]; input ligand: none): 555 nM

Sequence: GGAGGUCACAUUUACAUGAGGAUCACCCAUGUCGAAAGACAUGAGGAUAUGCUACCUAAUUGGUAGCAGAAGGCAUGGACCUCC [Mat - Same State NG 3 - JL Mod - D28]
- apparent KD of MS2 coat protein ([2]; input ligand: FMN 200 uM): 226 nM
- apparent KD of MS2 coat protein ([2]; input ligand: none): 287 nM

Sequence: GUACGGAUCAUAGGAUAUCUGCCGGCCGGAGUUAGAGAAGGGUGAUCUAGGAUGCCACAUGAGGAUCACCCAUGUCAACAUCGC [Vemati]
- apparent KD of MS2 coat protein ([2]; input ligand: FMN 200 uM): 20.9 nM
- apparent KD of MS2 coat protein ([2]; input ligand: none): 24.2 nM

Sequence: GUGCGAGCCACAGGAUAUCUACAGAUUUUUUGUAGAGAAGGGUGACCUCGUGCACCACAUGAGGAUCACCCAUGUAACUAGGCG [Bianeren]
- apparent KD of MS2 coat protein ([2]; input ligand: FMN 200 uM): 24.5 nM
- apparent KD of MS2 coat protein ([2]; input ligand: none): 82.1 nM

Sequence: GGAGACCUCACAGGAUAUGCUGGACUUUGUCCAGCAGAAGGGUGAACAUGAGGAUCACCCAUGUAAAUGGUCUCCAAAUUUAAU [Denovo 55]
- apparent KD of MS2 coat protein ([2]; input ligand: FMN 200 uM): 33.4 nM
- apparent KD of MS2 coat protein ([2]; input ligand: none): 389 nM

Sequence: AAAACAUGAGGAUCACCCAUGUAAAGAUCGGUUAAUAGAAGUGAGGAUAUACUAAAUUUUAGGUAGUAGAAGGCACUGGGUACA [JR_SSNG3_Sub034]
- apparent KD of MS2 coat protein ([2]; input ligand: FMN 200 uM): 28.1 nM
- apparent KD of MS2 coat protein ([2]; input ligand: none): 23.1 nM

Sequence: CACCGUUACAGAGGAUAUGACACAUGAGGAUCACCCAUGUAAUAAAUGAGAAUUUCGAAUGUAACUCAGAAGGCUGGAAUCGGC [JieuxMod 1 - Jieux - Exclusion NG 2]
- apparent KD of MS2 coat protein ([1]; input ligand: FMN 200 uM): 61.6 nM
- apparent KD of MS2 coat protein ([1]; input ligand: none): 25.9 nM

Sequence: CGAGACACUUGAGGAUAUGCUCAGGAUAACUGAGCAGAAGGCAGGGAAACCUGAGGAUCACCCAGGUAACUGGAAAGUCUCGAA [Same State NG1 - A3C, U17G Submission 5B]
- apparent KD of MS2 coat protein ([2]; input ligand: FMN 200 uM): 46.3 nM
- apparent KD of MS2 coat protein ([2]; input ligand: none): 144 nM

Sequence: UUAUAAAAUAUAGGAUAUGGAAACAUGAGGAUCACCCAUGUAUGAUAAGAUAAAUUAUGAUAUAGCCAGAAGGAUACAAUAUAU [LRO011_SS NG 2]
- apparent KD of MS2 coat protein ([2]; input ligand: FMN 200 uM): 28.9 nM
- apparent KD of MS2 coat protein ([2]; input ligand: none): 28 nM

Sequence: UAUUAAAGGUGAGGAUAUGCACAGGAUCACCGUGUAGAAGGCAUCAGGUAGAAGGUGCAGAGGAUCACCCUGUAAGGAUAUAUC [pwkr2 ssNG1 DX.10]
- apparent KD of MS2 coat protein ([2]; input ligand: FMN 200 uM): 191 nM
- apparent KD of MS2 coat protein ([2]; input ligand: none): 1080 nM

Sequence: UUUUUAUUUAUAGGAUAUGGAGACAUGAGGAUCACCCAUGUAUGAUAAGAUAAAUUAUGAUGUGGCCAGAAGGAUAUUAUUUUU [LRO018_SS NG 2]
- apparent KD of MS2 coat protein ([2]; input ligand: FMN 200 uM): 85.5 nM
- apparent KD of MS2 coat protein ([2]; input ligand: none): 76.4 nM

Sequence: GCAGAAGGUGCGGAGGAUCACCCUGUAAGGAUAUGCAUUAGCAAGGAUAUACAGAGGAUCACCCUGUAGAAGGUGCACUAUUCU [pwkr2 ssNG3 DX.4]
- apparent KD of MS2 coat protein ([2]; input ligand: FMN 200 uM): 1230 nM
- apparent KD of MS2 coat protein ([2]; input ligand: none): 1450 nM

Sequence: GCUGCUAUCGCAGGAUAUUACAUGGGAAAUAAUACAUGAGGAUCACCCAUGUAAAAUAUCGUAAAUAAGAAGGGCGAUAGCAGC [Lame State 4 - Jieux - Same State NG 2]
- apparent KD of MS2 coat protein ([2]; input ligand: FMN 200 uM): 239 nM
- apparent KD of MS2 coat protein ([2]; input ligand: none): 1210 nM

Sequence: CCUUGAUAAUAUCUUCACAUGAGGAUCACCCAUGUCGCUCGACAGGAUAUAUUUUAUUUGUUUAAGUAGAAGGGUCGCAGAUUC [LRO020_SS NG 3]
- apparent KD of MS2 coat protein ([2]; input ligand: FMN 200 uM): 142 nM
- apparent KD of MS2 coat protein ([2]; input ligand: none): 136 nM

Sequence: AGACUCAGAUGGUGCCAGCUUGCACAUGAGGAUCACCCAUGUCAGGAUAUCUUCGCUCCGGGAGAAGAGAAGGGACAAGAAAUU [Anenan]
- apparent KD of MS2 coat protein ([1]; input ligand: FMN 200 uM): 165 nM
- apparent KD of MS2 coat protein ([1]; input ligand: none): 104 nM

Sequence: UGAUCGCUUGGAGGAUAUCCAACUAUCCUAGUUGGAGAAGGCCAAGCUACAGAGCUAAGCUUGGAAGUCACUUCCGAUCAACAC [pwkr ssNG1 F9.4.2]
- apparent KD of MS2 coat protein ([2]; input ligand: FMN 200 uM): 54.9 nM
- apparent KD of MS2 coat protein ([2]; input ligand: none): 33.6 nM

Sequence: AAAUAAAAUAUAGGAUAUGGAAACAUGAGGAUCACCCAUGUAAAAUAAGAUAAAUAAUAAUAUAGCCAGAAGGAUAAAAUAUAA [LRO004_SS NG 2]
- apparent KD of MS2 coat protein ([2]; input ligand: FMN 200 uM): 34.5 nM
- apparent KD of MS2 coat protein ([2]; input ligand: none): 27.6 nM

Sequence: GCUUGCGACGAAGGAUAUGGGUGCCUAAACACGAGGAUCACCCGUGUACAGGAAGCUAAAUGCUCUCAGAAGGUCGUCGCAGGC [United States 10 - Jieux - Same State NG 2]
- apparent KD of MS2 coat protein ([2]; input ligand: FMN 200 uM): 18.4 nM
- apparent KD of MS2 coat protein ([2]; input ligand: none): 36 nM

Sequence: UCGAACGGAAACAAAGUCAAUAGACAUGAGGAUCACCCAUGUAAGGAUAUGCCUACUAAAAGUAGGCAGAAGGUACGCGUUCGA [Contusion 5 - Jieux - Exclusion NG 3]
- apparent KD of MS2 coat protein ([1]; input ligand: FMN 200 uM): 27.2 nM
- apparent KD of MS2 coat protein ([1]; input ligand: none): 18.3 nM

Sequence: UUAUAAUUAAGAGGAUAUAUACAACAUGAGGAUCACCCAUGUACCCAUGUAGUAGAAGGCUUAUUUUUAUAUAAUAAUAUAAUU [AstrosLoopssng1#9] (puzzle (switch architecture): Small Loop Same State NG 1)
- apparent KD of MS2 coat protein ([3]; input ligand: FMN 200 uM): 40 nM
- apparent KD of MS2 coat protein ([3]; input ligand: none): 148 nM

Sequence: CCGGGCCCGGGAGGAUAUACAUGAGGAUCACCCAUGUAUUCUCGGCCCGGCGAAAGCCGGGCCAUGUAGAAGGCCCGGGCCCGG [high melting point]
- apparent KD of MS2 coat protein ([1]; input ligand: FMN 200 uM): 103 nM
- apparent KD of MS2 coat protein ([1]; input ligand: none): 24.3 nM

Sequence: AAAUAAAUCGAAGGAUAUCAGGGUGCACCUCAGUAAAACUGAGGUGCACCCUGAGAAGGUCGAGGAUCACCCGAUCUAAAUAAA [#SharedSequence SLExNG1: 2-2] (puzzle (switch architecture): Small Loop Exclusion NG 1)
- apparent KD of MS2 coat protein ([3]; input ligand: FMN 200 uM): 114 nM
- apparent KD of MS2 coat protein ([3]; input ligand: none): 19.3 nM

Sequence: UCGGUUUUCGCAGGAUAUGGAGGAUAUUCCCACAUGAGCAUCAGCCAUGUCUGCAUGGAAGAAGGCCAGAAGGGCGAGAACCGA [United States 1 - Jieux - Same State NG 2]
- apparent KD of MS2 coat protein ([2]; input ligand: FMN 200 uM): 11.1 nM
- apparent KD of MS2 coat protein ([2]; input ligand: none): 13.6 nM

Sequence: CUUAGUUUGUAGAAGGGUGACAUGAGGAUCACCCAUGUGCGUCGCCUGAAAGACCAGGGUACGCCACAGGAUAUACAAAGUAAG [Ororzati] (puzzle (switch architecture): Inverted Same State NG 2)
- apparent KD of MS2 coat protein ([3]; input ligand: FMN 200 uM): 88.2 nM
- apparent KD of MS2 coat protein ([3]; input ligand: none): 58 nM

Sequence: GUCAGGAAUGUAGGAUAUCGUCAGGAAUACUGGCGAGAAGGACAUGAGGAUCACCCAUGUAAAAUGAAAGAUAAUAAACCUGGC [Exclsuion NG 1/2-C1]
- apparent KD of MS2 coat protein ([1]; input ligand: FMN 200 uM): 31.9 nM
- apparent KD of MS2 coat protein ([1]; input ligand: none): 18.7 nM

Sequence: GUAGCUAUCGGAGGAUAUUCAUACCGGAAACGGACAUGAGGAUCACCCAUGUGGCGAAAGCCUUGGGAGAAGGCCGAUAGCUAC [#DoubleMagnetSystem - jl-sng2-2.23 Eli mod] (puzzle (switch architecture): Same State NG 2)
- apparent KD of MS2 coat protein ([3]; input ligand: FMN 200 uM): 7.49 nM
- apparent KD of MS2 coat protein ([3]; input ligand: none): 215 nM
